Measured values from the nanobody polyreactivity screen of Harvey et al. (2022).

Assay: yeast display, Sf9 membrane polyspecificity reagent, FACS + sequencing; frameworks hold sequencing errors
How it was run: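 Polyreactivity labels are assigned by the sorting gate from which each nanobody was recovered. The gates were low and high (top ~1%), set on anti-HA fluorescence for expression and streptavidin fluorescence for reagent binding. Before sorting, galactose-induced (36–48 hours) yeast display cells were stained for 1 hour at 4 °C with 10% biotinylated, detergent-solubilized Sf9 membrane reagent.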

| Sequence | polyreactivity (PSR sort gate) |
| --- | --- |
| QVQLVESGGGLVQAGGSLRLSCAASGYNFGVYAMGWYRQAPGKERELVAAINGGDSTYYADSVKGRFTISRDNAKNTVYLQMNSLKPEDTAVYYCAADPYSVYGGDYWGQGTQVTVSS | low polyreactivity |
| QVQLVESGGGLVQAGGSLRLSCAASGYNFYVNGMGWYRQAAGTERELVARITLSGTSTYYADSVKGRITISRDYAKNTVYLQMNSLKPDDTAVYYCAAPYFTYGLDVDVYWGQGTQVTVSS | low polyreactivity |
| QVQLVESGGGLVQAGGSLRLSCAASGYRFERNAMGWYIQAPGKERELVAAITDDGDDTYYADSVKGRFTISRDNAKNTVYLQINSLKPEDYAVYYWAKDLYYGDYYYWGQGTQVTVSS | low polyreactivity |
| QVQLVESGGGLVQAGGSLRLSCAASGYTFARNAMGWYIQAPGKERELVAAISSSGGRTYYADSVKGRFTISRDNAKNTVYLQMNSLKPEDTAVYYCNTGYYRTGSYDYWGQGTQVTVSS | high polyreactivity |
| QVQLVESGGGLVQAGGSLRLSCAASGYTFAYYTMGWYRQAPGKERELVAAINRSGGSTNYADSVKGRFTISRDNAKNTVYLQMNSLKPEDTAVYYCAADYFFRRGPGAVFIGRYGYWGQGTQVTVSS | high polyreactivity |
| QVQLVESGGGLVQAGGSLRLSCAASGYTFDGYPRGWYRQAPGKERELVAVITKSGGRTYYADSVKGRFTNSRDNAKNTVYLQMNSLKPEDTAVYYCAADDSGTKDIVEGEYWGQGTQVTVSS | high polyreactivity |
| QVQLVESGGGLVQAGGSLRLSCAASGYTFEDNAMGWYRQAPGKERELVAAIDWSGDSTYYADSVKGRFTISRDNAKNTVYLQMNSLKPEDTAVYYCSADYTTWTDMDYWGQGTQVTVSS | low polyreactivity |
| QVQLVESGGGLVQAGGSLRLSCAASGYTFFTNAMGWYRQAPGKEREFVAAISKSGGNTYYADSVKGRFTISRDNAKNTVYLQMNSRKPEDTAVYYCAAQHRGYAGPRPYYYWGQGTQVTVSS | high polyreactivity |
| QVQLVESGGGLVQAGGSLRLSCAASGYTFFTNVMGWYRKAPGKERELVATITAGGSTYADSVKGRFTISRDNAKNTFYLQMNSLKPEDTAVYYCAVDALTGAWLGGYPYWADGYDYWGQGTQVTVSS | low polyreactivity |
| QVQLVESGGGLVQAGGSLRLSCAASGYTFFVYAMGWYRQAPGKERELVAAIDLNGGSTSYADSVKGRFTISRDNAKNTVYLQMNSLKPEDTAVYYCAAYSWVGYDYDYWGQGTQVTVSS | low polyreactivity |
| QVQLVESGGGLVQAGGSLRLSCAASGYTFGFYTRGWYRQAPGKERELVAGISWSGGSTYYADSVKGRFTISRDNAKNTVYLQMNSLKPEDTAVYYCATRWRGRYDYWGQGTQVTVSS | high polyreactivity |
| QVQLVESGGGLVQAGGSLRLSCAASGYTFGGNAMGWYRQAPGKERELVAAISSGGSTNYADSVKGRFTISRDNAKNTVYLQMNSLKPEDTAVYYCNKRGYYYWSGQDVASYDYWGQGTQVTVSS | low polyreactivity |
| QVQLVESGGGLVQAGGSLRLSCAASGYTFGKNAMGWYRQAPGKERELVAAISRSGGSTFYADSVKGRFTISRDNAKHTVYLQMNSLKPEDTAVYYCAARSYVRFDYWGQGTQVTVSS | high polyreactivity |
| QVQLVESGGGLVQAGGSLRLSCAASGYTFGQYAMGWYRQAPGKEREFVAAINRSGGSTYYADSVKGRFTISRDNAKNTVYLQMNSLKPEDTAVYYCNAGYRRSSHFREHDYWGQGTQVTVSS | high polyreactivity |
| QVQLVESGGGLVQAGGSLRLSCAASGYTFGRYAMGWYSQAPGKERELVAAITKSGGRTSYADSVKGRFTISRDNEKNTVYLQMTSLKPEDTAVYYCNKVRFQPYWVVYATGDYWGQGTQVTVSS | high polyreactivity |
| QVQLVESGGGLVQAGGSLRLSCAASGYTFGSNAMGWYRQAPGKERELVAAIRYRGDRTYYADSVKGRFTISRDNAKNTVYLQMNSLKPEDTAVYYCAATYGYNTLYRPLRFDYWGQGTQVTVSS | high polyreactivity |
| QVQLVESGGGLVQAGGSLRLSCAASGYTFGSNAMGWYRQAPGKERELVADIDWSSGNTYYADSVKGRFTISRDNAKNTVYVQMNSLKPEDTAVYYCAAELLIYYSWYWYDYWGQGTQVTVSS | high polyreactivity |
| QVQLVESGGGLVQAGGSLRLSCAASGYTFGSYAMGWYRQAPGKERELVAAISKRGGRTYYADSVKGRFTISRDNAKNTVYLQMNSLKPEDTAVYYCAKDYPKYDYWGQGTQVTVSS | high polyreactivity |
| QVQLVESGGGLVQAGGSLRLSCAASGYTFGVNAMGWYRQAPGKERELVAAISRSGGRTYYADSVKGRFTISRDNAKNTVYLQMTSLKPEDTAVYYCAKDRSGSYYNFPEYDYWGQGTQVTVSS | high polyreactivity |
| QVQLVESGGGLVQAGGSLRLSCAASGYTFGVYVMGWYREAPGKERELVAAISGSTYYADSVKGRFTISRDNAKNTVYVQMNSLKPEDTAVYYCAAESYFFSPRTREKFDYWGQGTQVTVSS | low polyreactivity |
| QVQLVESGGGLVQAGGSLRLSCAASGYTFGVYVMGWYRQAPGKERELVAAISGSTYYADSVKGRFTISRDNAKNTVYLQMNSLKPEDTAVYYCAAESYFFSPRTREKFDYWGQGTQVTVTS | low polyreactivity |

| Sequence | polyreactivity (PSR sort gate) |
| --- | --- |
| QVQLVESGGGLVQAGGSLRLSCAASGYTFIRNGMGWYRQAPGKERDLVAAISRRGGSTYYADSVKGRFTISRDNAKNTVYLQMNRLKPEDTAVYYCAKASTERMGSWGQGTQVTVSS | high polyreactivity |
| QVQLVESGGGLVQAGGSLRLSCAASGYTFIYYAMGWYRQAPGTERELVATISIDGSTNYADSVKGRFTISRDNAKNTVYLQMNSLKPEDTAVYYCNRERYEDYDYWGQGTQVTVSS | high polyreactivity |
| QVQLVESGGGLVQAGGSLRLSCAASGYTFKRYAMGWYRQAPGKERELVAAISQSGTNTYYADSVKGRFTISRDNAKNTVYLQMNSLKPEDTAVYYCAAKPPRRYQLMDYWGQGTQVTVSS | high polyreactivity |
| QVQLVESGGGLVQAGGSLRLSCAASGYTFKSYALGWYRQAPGKERELVASISNDGSTNYADSVKGRFTISRDNAKNTVYLQMNSLKPEDTAVYYCNADFYDAPSQWARTGFDYWGQGTQVTVSS | low polyreactivity |
| QVQLVESGGGLVQAGGSLRLSCAASGYTFKTNDMGRYRQAPGKEREFVAAIDSGGNTYYADSVKGRFTISRDNAKITVYLQMNSLIPEDTAVYYCGAYRDYQYDYWGQGTQVTVSS | low polyreactivity |
| QVQLVESGGGLVQAGGSLRLSCAASGYTFKYYTMGWSRQAPGKERELVAAITGGGSTYYADSVKGRFTISRDNAKNTVYLQMNSLKPEDTAVYYCAATVLYGYHKAYDYWGQGTQVTVSS | high polyreactivity |
| QVQLVESGGGLVQAGGSLRLSCAASGYTFKYYTMGWYRQAPGKESELVAAITRSGGSTYYADSVKGRFTISRDNAKNTVYLQINSLKPEDTAVYYCAARAAYKQPVSFDYWGQGTQVTVSS | high polyreactivity |
| QVQLVESGGGLVQAGGSLRLSCAASGYTFLGNAMGWYRQAPGKERELVAAISSGGTTYYADSVKGRFTISRDNAKNTVYLQMNSMKPEDTSVYYCADDRVGLSSGYDFWGQGTQVTVSS | low polyreactivity |
| QVQLVESGGGLVQAGGSLRLSCAASGYTFLGNAMGWYRQAPGKERELVAAISSGGTTYYADSVKGRFTISRDNEKNTVYFQMNSLKPEDTAVYFCATVFRDYDFNHWGQGTQVTVSS | low polyreactivity |
| QVQLVESGGGLVQAGGSLRLSCAASGYTFLPYALGWYRQAPGKERELVAAINWGGGSTYYADSVKGRFTISRDNAKNTVYLQMNSLKPEDTAVYYCNAKRPFGGLDYWGQGSQVTVSS | low polyreactivity |
| QVQLVESGGGLVQAGGSLRLSCAASGYTFLPYAMGLYRQAPGKERELVADISSGGTTYYADSVKGRFTISRDNAKNTVYLQMNSLKPEDTAVYYCARASLPTYDWGQGTQVTVSS | low polyreactivity |
| QVQLVESGGGLVQAGGSLRLSCAASGYTFLRYAMGWYRQAPGKERELVAAISRRGGRTYYADSVKGRFTISRDNAKNTVYLQMNSLKPEDTAVYYCAAVNSTQTIGLMDYWGQGTQVTVSS | high polyreactivity |
| QVQLVESGGGLVQAGGSLRLSCAASGYTFLYNAMGWYRQAPGKERELVAAISWNGGRTYYADSVKGRFTISRDNAKNTVYLQMNSLKPEDTAVYYCAKTPSYGRNVDYWGQGTQVTVSS | high polyreactivity |
| QVQLVESGGGLVQAGGSLRLSCAASGYTFNIYAMGWYRQAPGKERELVAAITSRGGGTYYADSVKGRFTISRDNAKNTVYLQMNSLKPEDTAVYYCAADVYSYYHWYTHYDYWGQGTQVTVSS | high polyreactivity |
| QVQLVESGGGLVQAGGSLRLSCAASGYTFNYYAMGWYRQAPGKEREFVASTYADSVKGRFTISRDNAKNTVYLQMNSLKPEDTAVYYCNARNLGRYLVLSYGYWRQGTQVTVSS | low polyreactivity |
| QVQLVESGGGLVQAGGSLRLSCAASGYTFPFYTMGWYRQAPGKERELVAAISNSGTSTYYADSVKGRFTISRHNAKNTVYLQMNSLKPEDTAVYYSNAGRGTRFVYIDGMDYWGQGTQVTVSS | high polyreactivity |
| QVQLVESGGGLVQAGGSLRLSCAASGYTFPSNAMGWYREAPGKERELVAAISSGARTNYADSVKGRFTISRDNAKNTVYLQMNSLKPEDTAVYYCNKAAASFRHFYGYGYWGQGTQVTVSS | low polyreactivity |
| QVQLVESGGGLVQAGGSLRLSCAASGYTFQAYAMGWYRQAPGKERELVAAISFSSGSTYYADSVKGRFTISRDNAKNTVYLQMNSLKPVDTAVYYCATDYPYYGYDYWGHGTQVTVSS | low polyreactivity |
| QVQLVESGGGLVQAGGSLRLSCAASGYTFQKYAMGWYIQAPGKERELVAAITRSGTRTYYADSVKGRFTISRDNAKNTVYLQMNSLKPEDTAVYYCAAETYYSIYDYWGQGTQVTVSS | high polyreactivity |
| QVQLVESGGGLVQAGGSLRLSCAASGYTFQKYAMGWYRQAPGKERELVAAITRSGTRTYYADSVKGRFTISRDNAKNTVYFQMNSLKPEDTAVYYCAAETYYSIYDYWGQGTQVTVSS | high polyreactivity |
